Data taken from the supplement of paper PMC10567573.

B1: MNAT1 (parent)
chain: SLREYNDFLEEVEEIVFNLTNNVD
B2: MLL5 (parent)
chain: DCMGIDRQHIPDTYLCERCQPRNL

Variants of: B1
Experiment: protein stability index of a GFP-peptide fusion (GPS, HEK-293T) (PSI 1-6); higher = more stable
Settings: c terminus: a fixed tail appended
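Also: lentivirally expressed fusions sorted by FACS into six bins by GFP to DsRed ratio, PSI derived from sequencing read proportions per bin multiplied by bin number.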

Protein stability index of substitutions, site by site:
N21: Q 3.08, L 1.81, K 1.45, H 1.76, T 2.42, C 1.48, D 3, I 1.73, M 2.48, Y 2.4, S 1.68, P 2.19, G 2.58, E 2.51, R 1.95, A 1.42
N22: Q 1.84, A 2.69, D 1.98, P 2.25, L 1.16, S 1.78, G 2.96, T 2.06, V 1.9, E 2.38, K 2.64, W 2.97, I 2.25, C 1.66, M 1.44, F 2.47, H 2.15, R 2.09, Y 1.38
N18: T 2.55, Q 1.73, F 2.22, G 2.38, P 2.71, E 2.16, C 1.71, K 2.01, M 1.84, R 1.6, Y 1.4, A 1.84, W 2.52, D 2.36, V 2.32, H 1.85, S 2.16
D24: G 2.61, V 1.65, S 2.07, F 1.87, Q 1.73, C 1.5, I 1.85, T 1.82, K 1.81, A 1.79, Y 1.9, N 1.31, W 1.54, E 2.47, H 1.88, L 1.82, P 2, R 1.26
F17: T 3.16, H 3.15, K 2.38, L 2.19, M 2.57, C 2.88, V 2.82, S 3.11, G 3.4, N 2.16, A 2.46, Y 1.91, W 1.95, E 3.34, R 2.2, Q 2.78, P 4, D 3.2
V23: D 2.92, Q 2.21, R 2.18, P 3.05, T 2.5, G 2.73, L 1.64, I 1.98, Y 1.8, W 1.57, F 2.71, M 1.44, N 2.35, E 2.82, H 2.38, A 2.69, K 2.08, S 3.05, C 2.47
T20: S 3.05, N 2.56, C 2.31, K 2.41, G 2.31, I 1.41, F 1.5, H 2.25, Q 2.37, M 1.86, W 2, E 2.51, P 3.19, A 1.07, R 2.46, V 1.33, L 2.75, Y 1.5, D 3.91
L19: Y 3.06, N 3.76, R 3.34, I 1.84, C 3.34, P 4.05, D 4.43, G 4.19, K 4.26, W 1.63, V 2.97, H 4.43, Q 4.07, S 4.18, T 3.6, F 2.24, M 2.89, E 4.55, A 3.2
V16: S 4.58, Y 2.63, W 2.83, T 3.21

Variants of: B2
Experiment: as above
Settings: c terminus: a fixed tail appended

Protein stability index of substitutions, site by site:
R7: W 2.4, F 2.78, E 3.58, I 2.24, A 2.63, V 2.39, M 2.55, Y 2.2, L 2.68, T 3.02, K 2.29, Q 3.06, H 3.73, C 4.09, N 2.9, D 3.62, G 3.69, P 2.94, S 3.44
C2: V 2.77, T 3.21, M 2.89, I 2.57, N 3.41, S 2.63, Y 2.53, H 3.36, F 2.1, R 3.38, Q 3.48, K 2.99, D 3.08, P 4.03, A 3.09, G 2.7, L 2.73, W 2.21, E 3.79
G4: H 3.98, M 2.88, E 3.23, F 2.37, V 2.38, N 2.19, Y 2.49, W 1.78, P 2.55, A 2.23, R 2.48, T 3.23, Q 2.88, S 3.45, I 2.41, D 3.11, C 3.73, L 2.63, K 3.19
Q8: G 2.59, W 1.76, T 2.33, L 1.99, S 3.25, K 2.44, N 3.07, D 2.27, C 2.73, I 2.56, Y 2.65, F 1.98, P 3.41, E 2.63, M 2.58, A 2.54, R 2.5, V 2.1, H 2.89
H9: C 3.29, G 2.77, I 2.24, T 3.11, D 2.56, F 2.04, V 2.63, S 2.98, Q 3.04, E 2.86, M 2.16, R 2.64, A 2.63, K 3.58, W 2.23, Y 2.01, P 2.12, N 2.65, L 2.93
M3: F 2.57, W 3.54, Q 2.48, K 3.63, V 2.9, E 4.56, N 2.88, R 2.61, H 2.81, A 2.48, Y 3.03, C 3.14, L 2.89, P 3.32, S 3.66, D 3.75, I 2.77, G 2.94, T 2.47
D6: G 2.78, P 2.61, L 2.31, S 2.99, V 2.4, T 2.02, F 1.74, N 2.4, K 2.59, W 1.62, E 2.78, R 2.74, Y 2.47, C 3.29, H 3.19, Q 3.21, M 1.88, A 3.27, I 1.56
I10: N 3.3, S 3.14, P 2.97, T 2.48, M 3.9, F 2.54, R 3, K 3.04, E 3.72, A 2.92, Q 3.42, G 3.13, H 3.49, L 3.02, D 3.56, C 3.62
I5: C 3.73, S 2.54, D 2.87, R 3.37, F 2.85, M 3.1, V 3.16, W 2.88, Y 2.61, G 3.5, A 3.7, P 3.27, Q 3.37, E 3.57, T 3.69, H 3.99, K 3.48, N 3.67
D1: A 2.69, M 1.91, N 2.21, P 3.3, I 2.17, C 3.63, S 3.17, F 1.89, E 2.63, W 1.4, H 2.73, R 2.42, T 2.43, Y 1.95, L 2.21, Q 2.41, V 2.86, K 2.58
